The values that follow come from patent US20220380457A1.

The target of the assay is FcγRIIIA (CD16α) on human NK cells in whole blood (human) (UniProt P08637). Put plainly: cell-based or functional assay.
Sequence of UniProt P08637 (P08637 17-254): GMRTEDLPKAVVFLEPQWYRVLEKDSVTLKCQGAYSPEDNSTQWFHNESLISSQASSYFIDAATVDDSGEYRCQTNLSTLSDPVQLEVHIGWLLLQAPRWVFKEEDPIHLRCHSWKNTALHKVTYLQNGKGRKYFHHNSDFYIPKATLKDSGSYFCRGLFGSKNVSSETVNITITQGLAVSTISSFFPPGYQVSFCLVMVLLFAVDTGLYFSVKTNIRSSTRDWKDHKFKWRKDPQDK

“WT rituximab (soluble antibody, wild type hinge)”: the NK cell activation in whole human blood, CD16/CD62L staining, FIG. 11A control row, left lower quadrant (downregulation of CD16α) came out at 45.2; the NK cell activation in whole human blood, CD107α/CD69 staining, FIG. 11B control row, right upper quadrant (upregulation of CD107α) came out at 35.3; the NK cell activation with IdeZ, FIG. 11A IdeZ row, left lower quadrant worked out at 8.8; the NK cell activation with IdeZ, FIG. 11B IdeZ row, right upper quadrant is 1.9. Moreover, the depletion of CD19(+) B cells with IdeZ against WT rituximab in control blood is 63% and the residual CD19(+) B cells in blood with IdeZ, FIG. 11C IdeZ row, right lower quadrant is 9.8.
